The record followed here is patent US7265263B1, “Potato transcription factors, methods of use thereof, and a method for enhancing tuber development” (Iowa State University Research Foundation, Inc., priority 2002, dated 2007).

Test [1] concerns the target T1, POTH1 in pBridge (full-length POTH1 fused with the GAL4 DNA-binding domain) (Solanum tuberosum).
T1 construct: Bait of the yeast two-hybrid screen and partner of the StBEL-05 deletion constructs; also called pBHD; pBridge:POTH1
Description: yeast two-hybrid deletion analysis. An excerpt:
The Matchmaker two-hybrid system (Clontech, Calif.) was used for the yeast two-hybrid screen. Yeast transformation and plasmid rescue into DH5-α *E. coli* cells were according to the manufacturer's instructions. Full-length POTH1 was cloned into the pBridge (Clontech, Calif.) vector and used as bait to screen the potato (*S. tuberosum* 'Desireé') stolon cDNA library in pAD-GAL4-2.1 (Stratagene, Calif.). Positive interactions were confirmed by cotransforming yeast strain AH109 with each purified pAD plasmid and pBridge: POTH1 and plating on -leucine/-tryptophan (transformation control) and -leucine/-tryptophan/-histidine/-adenine (selection) nutrient medium. Induction of the AH109 reporter gene, lacZ, was measured with a yeast β-galactosidase assay kit (Pierce Chemicals). β-galactosidase activity (FIG. 9B) was determined from a known density of yeast cells and calculated as 1000 ×OD420/time of color reaction (minutes)×volume of yeast culture (ml)×$OD600$.
The StBEL-05 deletion constructs were amplified by PCR, then cloned into the vector, pGAD, in-frame with the GAL4 activation domain. POTH1 deletion constructs were amplified by PCR, and cloned into pBridge (Clontech) in-frame with the GAL4 binding domain. Sequencing of selected cDNAs and constructs was performed at the Iowa State University DNA Facility. […]

Test [2] concerns the target T2, StBEL-05 in pBridge (fusion with the GAL4 DNA-binding domain) (Solanum tuberosum).
T2 construct: Swapped two-hybrid orientation; also called prey cDNA cloned into pBridge
Description: yeast two-hybrid, swapped vectors.

Test [3] relates to StBEL-05. The test is described as follows: Yeast two-hybrid interaction of POTH1 deletion constructs with StBEL-05. The note with it: yeast AH109. The class given is binding, Solanum tuberosum. The method, then: The StBEL-05 deletion constructs were amplified by PCR, then cloned into the vector, pGAD, in-frame with the GAL4 activation domain. POTH1 deletion constructs were amplified by PCR, and cloned into pBridge (Clontech) in-frame with the GAL4 binding domain. Sequencing of selected cDNAs and constructs was performed at the Iowa State University DNA Facility. For deletion analysis, modified constructs of POTH1 were cloned into the pBridge vector for fusion with the DNA-binding domain of GAL4 (FIG. 10A). For StBEL-05, constructs were cloned into the pGAD vector for fusion with the activating domain of GAL4 (FIG. 10B). Deletion constructs were made from both the amino and carboxy termini. These mutants were then tested for interaction in the yeast two-hybrid system by cotransforming into yeast strain AH109 with the corresponding full-length partner (StBEL-05 in pGAL4 or POTH1 in pBridge). All constructs were sequenced to verify that they were in-frame. Positive interactions were verified for lacZ induction by using a β-galactosidase assay (Pierce Chemical Company). For POTH1, seven deletion constructs were tested (FIG. 10A). For the BEL TFs, a fusion construct of StBEL-05 (653 aa of StBEL-05 sequence) and nine deletion constructs were tested (FIG. 10B).

The test system of test [4] is StBEL-05. Description: In vitro binding assay of POTH1 deletion constructs with StBEL-05. More on the design: species or system Solanum tuberosum. The note with it: in vitro binding protocol. As for the experimental part:
In vitro binding experiments were performed as described by Ni et al., “PIF3, a Phytochrome-Interacting Factor Necessary for Normal Photoinduced Signal Transduction, is a Novel Basic Helix-Loop-Helix Protein,” Cell 95:657-667 (1998), which is hereby incorporated by reference in its entirety. The full-length sequence for POTH1 was cloned into a pET17b/GAD fusion cassette and transcribed under the control of the T7 promoter. […] Each 50 μl TnT reaction contained 2.0 μg of template plasmid DNA and 20 μmol (20 μCi) of labeled ^35S-methionine. The POTH1:GAD/BEL complex was immunoprecipitated with anti-GAD antibodies (Santa Cruz Biotechnology, Calif.). The proteins from the pellet (one-half the fraction) and for the prey (one-fourth of the reaction volume) were resolved on a 10% SDS-PAGE gel and visualized by autoradiography. […] Control experiments identified the first 114 aa of the N-terminus (pBHD9) as a transcriptional activator. […] Co-transformation of pBHD9 with an empty pGAD cassette produced transformants capable of growth on -histidine, -tryptophan, -adenine, and -leucine medium and induction of lacZ. None of the other constructs containing this domain were capable of growing on selection media without StBEL-05.

B1: pAD5-2 (StBEL-05 deletion construct in pGAD) (other, not shown: small tags and cut ends)
chain: EEVEQRYRQYHHQMQIIVLSFEQVAGIGSAKSYTQLALHAISKQFRCLKDAIAEQVKATSKSLGEEEGLGGKIEGSRLKFVDHHLRQQRALQQIGMMQPNAWRPQRGLPERAVSVLRAWLFEHFLHPYPKDSDKIMLAKQTGLTRSQVSNWFINARVRLWKPMVEEMYLEEVKNQEQNSTNTSGDNKNKETNISAPNEEKHPIITSSLLQDGITTTQAEISTSTISTSPTAGASLHHAHNFSFLGSFNMDNTTTTVDHIENNAKKQRNDMHKFSPSSILSSVDMEAKARESSNKGFTNPLMAAYAMGDFGRFDPHDQQMTANFHGNNGVSLTLGLPPSENLAMPVSQQNYLSNDLGSRSEMGSHYNRMGYENIDFQSGNKRFPTQLLPDFVTGNLGT
notes: Residues converted from pAD-05 numbering
With B1, the binding result in test [1] was “no binding”.

B2: pBHD9 construct cloned into the pGAD vector (other, not shown: large carriers)
chain: MDDEMYGFHSTRDDYADKALMSPENLMMQTEYNNFHNYTNSSILTSNPMMFGSDDIQLSSEQTNSFSTMTLQNNDNIYQIRSGNCGGGSGSGGSSKDHNDNNNNNEDYDEDGSN
notes: also called pBDH9 construct in pGAD
With B2, the binding result in test [2] was “no binding”.

B3: pBHD-9: POTH1 deletion construct, first amino-terminal 114 aa, no KNOX domain sequence (protein)
chain: MDDEMYGFHSTRDDYADKALMSPENLMMQTEYNNFHNYTNSSILTSNPMMFGSDDIQLSSEQTNSFSTMTLQNNDNIYQIRSGNCGGGSGSGGSSKDHNDNNNNNEDYDEDGSN
As for B3, in the test with StBEL-05 [3], the “interaction with StBEL-05” value was “Interaction with StBEL-05 was observed”. Besides, the “pull-down of StBEL-05” value with StBEL-05 [4] is “unable to pull-down StBEL-05”.
